{"source": "patent US20130052729A1", "about": "“METHOD FOR PREPARING INDUCED PARAXIAL MESODERM PROGENITOR (IPAM) CELLS AND THEIR USE” (priority 2011, published 2013)", "molecules": {"B1": {"name": "R-spondin3: secreted protein of the R-spondin family that activates Wnt signalling pathway; recombinant protein obtained commercially (R&D) (protein, UniProt Q9BXY4 22-272, looked up)", "R-spondin-3": "QNASRGRRQRRMHPNVSQGCQGGCATCSDYNGCLSCKPRLFFALERIGMKQIGVCLSSCPSGYYGTRYPDINKCTKCKADCDTCFNKNFCTKCKSGFYLHLGKCLDNCPEGLEANNHTMECVSIVHCEVSEWNPWSPCTKKGKTCGFKRGTETRVREIIQHPSAKGNLCPPTNETRKCTVQRKKCQKGERGKKGRERKRKKPNKGESKEAIPDSKSLESSKEIPEQRENKQQQKKRKVQDKQKSVSVSTVH"}, "B2": {"name": "R-spondin2: secreted protein of the R-spondin family that activates Wnt signalling pathway; recombinant protein obtained commercially (R&D) (protein, UniProt Q6UXX9 22-243, looked up)", "R-spondin-2": "QGNRWRRSKRASYVSNPICKGCLSCSKDNGCSRCQQKLFFFLRREGMRQYGECLHSCPSGYYGHRAPDMNRCARCRIENCDSCFSKDFCTKCKVGFYLHRGRCFDECPDGFAPLEETMECVEGCEVGHWSEWGTCSRNNRTCGFKWGLETRTRQIVKKPVKDTILCPTIAESRRCKMTMRHCPGGKRTPKAKEKRNKKKKRKLIERAQEQHSVFLATDRANQ"}, "B3": {"name": "Dkk1: secreted extracellular Wnt antagonist, inhibitor of canonical Wnt signaling (protein, UniProt O94907 32-266, looked up)", "Dickkopf-related protein 1": "TLNSVLNSNAIKNLPPPLGGAAGHPGSAVSAAPGILYPGGNKYQTIDNYQPYPCAEDEECGTDEYCASPTRGGDAGVQICLACRKRRKRCMRHAMCCPGNYCKNGICVSSDQNHFRGEIEETITESFGNDHSTLDGYSRRTTLSSKMYHTKGQEGSVCLRSSDCASGLCCARHFWSKICKPVLKEGQVCTKHRRKGSHGLEIFQRCYCGEGLSCRIQKDHHQASNSSRLHTCQRH"}}, "key": {"Msgn1RepV mES cells": {"test_system": "Msgn1RepV mES cells", "experiment": "iPAM induction in Msgn1RepV reporter mES cells (YFP+ cells, flow cytometry)", "assay_type": "cell-based, mouse", "conditions": "for effect on number of YFP+ cells: recombinant protein, 15% FBS, 4 days of differentiation", "method": "ES cells were trypsinized and plated at various densities in gelatin coated, feeder-free, 24 well plates directly in serum-based (15% FBS) or serum-replacement (15% KSR, Invitrogen) conditions supplemented with factors, and DMSO (Sigma). Recombinant proteins were obtained commercially (R&D) and stock solutions were prepared according to manufacturer's recommendation. The GSK-3β inhibitor CHIR99021 was purchased from Stemgent and prepared according to the manufacturer's recommendations. Fluorescent reporter analysis and image acquisition were done on a Zeiss Axiovert system.\nCell cultures were dissociated by trypsinization, analyzed by flow cytometry on a FACScalibur (BD Biosciences) according to YFP expression. Data were further analyzed with MoFlo software (Beckman Coulter) and FlowJo software.\nIn order to follow the differentiation of ES cells toward the first stage of paraxial mesoderm differentiation (ie presomitic fate), which represents the first step of skeletal muscle differentiation after acquisition of a mesodermal identity, we generated a transgenic mouse ES cell line harboring a fluorescent reporter specifically expressed in paraxial mesoderm progenitors. We used the promoter from the mouse Msgn1, a gene specific for the presomitic mesoderm, to drive the expression of Venus (a modified YFP).\nIn order to optimize the differentiation conditions for paraxial mesoderm progenitors, we developed a manual screening assay, testing candidate growth factors and drugs interfering with various signaling pathways on ES cells. The Msgn1RepV reporter cells were plated at a defined density in 24-well plates coated with gelatin (0.1%). Two basal culture media were selected: a DMEM based medium containing 15% fetal bovine serum (FBS, high serum) and a defined serum-free medium containing 15% KSR (Invitrogen/Gibco). These basal media were supplemented with candidate factors on day 0 of differentiation. Control and experimental conditions were cultured in parallel. Cells were left to differentiate for three to four days with medium changed on day 2 or 3. Cell cultures were analyzed on day 3 and 4 of differentiation visually and by flow cytometry for YFP+ population quantification."}, "canonical Wnt signaling": {"test_system": "canonical Wnt signaling", "experiment": "BAT-luc luciferase reporter for canonical Wnt signaling in transfected ES cells", "assay_type": "cell-based, mouse", "conditions": "Rspo3 10 ng/mL, low serum (1% FBS) medium"}, "HUES1 cells": {"test_system": "HUES1 cells", "experiment": "qRT-PCR of paraxial mesoderm progenitor markers in differentiating human ES cells", "assay_type": "cell-based", "conditions": "3 to 10 days of culture in 15% FBS containing medium", "method": "Comparison of the expression of paraxial mesoderm progenitor markers Brachyury (A), PDGFRa (B), Tbx6 (C), Msgn1 (D) measured by Q RT-PCR in HUES1 undifferentiated or cultured in 15% FBS containing medium with or without Rspo3 for up to 10 days. Relative expression to undifferentiated HUES1 cells is shown (fold induction)\n(§1) Total RNA was extracted from ES cell cultures using a Trizol reagent (Invitrogen) or with the Rnaeasy plus mini-kit (Qiagen). RT-PCR was performed on 5 ng total RNA using QuantiFast SYBR Green RT-PCR Kit (Qiagen), appropriate primers and run on a LightCycler 480II (Roche). GAPDH was used as the internal control.\nNext, to confirm that R-spondin also induces iPAM cells from human ES cells differentiation, HUES1 cells were plated has single cells and differentiated in 15% FBS containing medium with or without Rspo3. qRT-PCR time course analysis for paraxial mesoderm progenitor markers expression was performed (FIG. 10)."}, "mouse ES cells": {"test_system": "mouse ES cells", "experiment": "Sequential differentiation of iPAM cells into paraxial mesoderm derivatives (staining, qRT-PCR)", "assay_type": "cell-based", "conditions": "DMSO 0.5%", "method": "From day 0 to day 4, mouse ES cells were differentiated in presence of Rspo3, followed by 15% FBS medium until day 18. Cell types were identified by tissue-specific antibody staining, namely Muscle (Desmin, green), Endothelium (PECAM1/CD31, green) and Cartilage (Alcian Blue).\nES cells were cultured for 4 days in FBS15%, DMSO 0.5% and 10 ng/ml Rspo3 and then switched to FBS 15% or FBS 1% or FBS1% plus […] (Shh) and Retinoic acid (F1ShhRA) or plus Shh, Noggin and LiCl (F1SNLi). Cells were harvested the next day and analyzed by qRT-PCR for the dermal marker Dermol (A) and the muscle marker Myf5 (B). Graphs show fold enrichment.\nas §1, with “control. […]” for “control.”\nFor example, between day0 to day4, ES cells were exposed to optimized differentiating conditions (ie. R-spondin3 10 ng/mL, DMSO 0.5%, in 15% FBS basal medium). […] At day 18, cell cultures were fixed and analyzed by tissue specific histochemical staining or immunofluorescence (FIG. 8). […] Cells were harvested the next day and analyzed by qRT-PCR for the dermal marker Dermo 1 and the muscle marker Myf5 (FIG. 9)."}, "Wnt signaling": {"test_system": "Wnt signaling", "conditions": "cited from earlier work"}}, "note": "“Also recorded” adds a separate entry of the source.", "data": [{"molecule": "Cc1c[nH]c(-c2cnc(NCCNc3ccc(C#N)cn3)nc2-c2ccc(Cl)cc2Cl)n1", "note": "[CHIR99021, reference compound]", "values": [{"measurement": "efficiency in inducing YFP+ cells compared with Rspo-3", "setting": "Msgn1RepV mES cells; after 4 days, 15% FBS medium", "value": "as efficient as Rspo-3"}]}, {"molecule": "C[S+](C)[O-]", "note": "[DMSO, Dimethyl sulfoxide]", "values": [{"measurement": "effect on YFP+ cells", "setting": "Msgn1RepV mES cells; 0.5% DMSO in FBS-containing medium, 4 days in culture", "value": "positive effect on iPAM induction; also recorded: increase of YFP+ cells"}]}, {"molecule": "B1", "values": [{"measurement": "induction of YFP+ cells", "setting": "Msgn1RepV mES cells; 10 ng/mL, both in FBS based medium and KSR based medium", "value": "up to 70%"}, {"measurement": "YFP+ population of the total population", "setting": "Msgn1RepV mES cells; 10 ng/mL, day 4 of differentiation, 15% FBS medium, flow cytometry", "value": "more than 70%"}, {"measurement": "effect on number of YFP+ cells", "setting": "Msgn1RepV mES cells", "value": "significantly increase the number of YFP+ cells"}, {"measurement": "luciferase (BAT-luc) activation, canonical Wnt response", "setting": "canonical Wnt signaling", "value": "strongly activated"}, {"measurement": "luciferase (BAT-luc) activation, canonical Wnt response", "setting": "canonical Wnt signaling; listed as Rspo3", "value": "strongly activates the canonical Wnt response"}, {"measurement": "expression of paraxial mesoderm progenitor markers Brachyury, PDGFRa, Tbx6 and Msgn1", "setting": "HUES1 cells", "value": "induction of the paraxial mesoderm progenitor markers; also recorded: Strong activation of Msgn1 and Tbx6"}, {"measurement": "activation of dermal marker Dermo 1 and muscle marker Myf5 (qRT-PCR)", "setting": "mouse ES cells; 4 days Rspo3 10 ng/mL, FBS15%, then switched medium, harvested next day", "value": "Significant activation of these markers"}, {"measurement": "tissue-specific staining of cultures at day 18", "setting": "mouse ES cells; day0 to day4 R-spondin3 10 ng/mL, 15% FBS, then differentiation media until day 18", "value": "positive for Cartilage (Alcian blue positive nodules), Muscles (Desmin positive fibers) and Endothelium (CD31/PECAM1)"}, {"measurement": "potency to activate Wnt signaling versus Rspo1 and 4", "setting": "Wnt signaling", "value": "more potent"}]}, {"molecule": "B2", "values": [{"measurement": "effect on number of YFP+ cells", "setting": "Msgn1RepV mES cells", "value": "significantly increase the number of YFP+ cells"}, {"measurement": "potency to activate Wnt signaling versus Rspo1 and 4", "setting": "Wnt signaling", "value": "more potent"}]}, {"molecule": "B3", "values": [{"measurement": "effect of supplementation of the medium on YFP+ induction", "setting": "Msgn1RepV mES cells; 15% FBS medium, 4 days", "value": "sharp decrease of YFP+ induction"}]}]}
